The record followed here is publication PMC11754618, “Chemical tools to define and manipulate interferon-inducible Ubl protease USP18” (Nature Communications, 2025).

Common to all, as to conditions: both partners purified
Experiment [1] concerns the target T1, His6-Mm.USP18 (46-368) (mouse, UniProt Q9WTV6 46-368).
T1 construct: ubiquitin-specific protease 18 (USP18), mouse, residues 46-368; Expressed as MBP-tev-His6-USP18 from pDest-795 (Addgene 161881 is the vector); the TEV site ENLYFQG was cut, His6 stays and serves for capture on the NTA chip; also called mouse USP18; recombinant mouse USP18; source: insect cells (baculovirus), purified (IMAC, TEV digest, second IMAC); not shown: MBP, N-terminal, cleaved; His6, …
T1 sequence (looked up): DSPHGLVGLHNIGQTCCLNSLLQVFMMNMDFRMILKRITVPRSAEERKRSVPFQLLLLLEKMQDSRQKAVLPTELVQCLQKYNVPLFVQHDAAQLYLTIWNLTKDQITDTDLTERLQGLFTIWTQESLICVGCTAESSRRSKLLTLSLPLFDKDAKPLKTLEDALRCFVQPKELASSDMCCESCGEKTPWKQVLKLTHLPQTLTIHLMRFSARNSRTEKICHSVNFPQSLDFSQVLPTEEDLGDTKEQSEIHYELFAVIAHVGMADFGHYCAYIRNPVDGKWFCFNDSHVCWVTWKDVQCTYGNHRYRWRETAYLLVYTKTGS
The experiment in a line: covalent labelling by an activity-based probe (SDS-PAGE); recombinant USP18 (2 μM), USP5 (1 μM) or USP16 (0.45 μM) with Ac-Ubl-PA probes (10 μM), 3 h, room temperature; higher band on SDS-PAGE, SYPRO Ruby staining.

The target of experiment [2] is T2, His6-Hs.USP18 (16-372) (human, UniProt Q9UMW8 16-372).
T2 construct: ubiquitin-specific protease 18 (USP18), human, residues 16-372; Expressed as MBP-tev-His6-USP18 from pDest-795 (Addgene 161881 is the vector); the TEV site was cut, His6 stays; also called human USP18; recombinant human USP18; source: insect cells (baculovirus), purified (IMAC, TEV digest, second IMAC); not shown: MBP, N-terminal, cleaved; His6, N-terminal, kept
T2 sequence (looked up): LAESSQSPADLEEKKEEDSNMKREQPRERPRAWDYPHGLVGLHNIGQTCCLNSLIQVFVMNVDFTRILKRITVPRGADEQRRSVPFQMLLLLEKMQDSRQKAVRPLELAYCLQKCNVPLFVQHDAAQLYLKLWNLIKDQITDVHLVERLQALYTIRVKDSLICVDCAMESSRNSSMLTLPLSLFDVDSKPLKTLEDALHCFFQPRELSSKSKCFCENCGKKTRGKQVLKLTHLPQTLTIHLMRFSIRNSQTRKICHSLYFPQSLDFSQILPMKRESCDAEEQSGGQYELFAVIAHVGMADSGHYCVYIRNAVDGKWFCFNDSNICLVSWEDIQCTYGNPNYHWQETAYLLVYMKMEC
The description is as above.

Experiment [3] addresses T1, His6-Mm.USP18 (46-368). The experiment in a line: SPR; BIAcore 3000; mouse and human USP18 immobilised via the N-terminal His6 tag on an NTA chip; 25 °C; 50 mM HEPES, 150 mM NaCl, 0.05 mM EDTA, 0.5 mM DTT, 0.01% P20, pH 7.5; 20 μL/min; Langmuir 1:1 model with drift.
In experiment [4] the target is T2, His6-Hs.USP18 (16-372). Described as above.

B1: Ac-mISG15CTD[WT]-PA (domain or fragment, mouse)
chain: LSILVRNERGHSNIYEVFLTQTVDTLKKKVSQREQVHEDQFWLSFEGRPMEDKELLGEYGLKPQSTVIKHLRLRG
modifications: N-terminal acetyl; C-terminal propargylamine (PA) warhead replacing Gly155
notes: C-terminal domain of mouse ISG15, Leu80~Gly154; also called Ac-mISG15CTD-PA; WT probe; source: synthetic (solid-phase peptide synthesis), RP-HPLC purified
Consider B1, for which the binding result in the experiment with His6-Mm.USP18 (46-368) [1] and with His6-Hs.USP18 (16-372) [2] was “binds” throughout.

B2: Ac-mISG15CTD-OH (wild type) (domain or fragment, mouse)
chain: LSILVRNERGHSNIYEVFLTQTVDTLKKKVSQREQVHEDQFWLSFEGRPMEDKELLGEYGLKPQSTVIKHLRLRG
modifications: N-terminal acetyl
notes: C-terminal domain of mouse ISG15, Leu80~Gly154; also called Ac-mISG15CTD[WT]-OH; source: synthetic (solid-phase peptide synthesis), RP-HPLC purified
As to B2, the binding result with His6-Mm.USP18 (46-368) [3] and with His6-Hs.USP18 (16-372) [4] was “binds” each time.
